Measurements as given in paper PMC12089766.

Assays:
[1] = target: Arabidopsis cytosolic glyceraldehyde-3-phosphate dehydrogenase (GAPC1), recombinant, His-tagged (Arabidopsis thaliana) (UniProt P25858)
[2] = target: Arabidopsis cytosolic glyceraldehyde-3-phosphate dehydrogenase (GAPC1), recombinant, His-tagged (Arabidopsis thaliana) (UniProt P25858); experiment: MST; GAPC1 labelled on its His tag (RED-tris-NTA 2nd Generation), 50 nM; cyclo(His-Pro) titrated; 50 mM Tris-HCl pH 8.0 with 1.6 mM NAD+; premium capillaries, Monolith X; binding from the spectral shift A670/A650
[3] = target: Arabidopsis cytosolic glyceraldehyde-3-phosphate dehydrogenase (GAPC1), recombinant, His-tagged (Arabidopsis thaliana) (UniProt P25858); experiment: nano-differential scanning fluorimetry (nanoDSF); about 0.8 ug protein per capillary in 50 mM Tris-HCl pH 8.0; ligands at 100 uM (cyclo(Tyr-Asp) also at 500 uM and 1 mM); ramp 2 °C/min, 20 to 90 °C; shift of the melting temperature against mock
[4] = target: human glyceraldehyde-3-phosphate dehydrogenase (GAPDH), recombinant, His-tagged (human) (UniProt P04406)
Chain of UniProt P04406 (P04406 whole entry): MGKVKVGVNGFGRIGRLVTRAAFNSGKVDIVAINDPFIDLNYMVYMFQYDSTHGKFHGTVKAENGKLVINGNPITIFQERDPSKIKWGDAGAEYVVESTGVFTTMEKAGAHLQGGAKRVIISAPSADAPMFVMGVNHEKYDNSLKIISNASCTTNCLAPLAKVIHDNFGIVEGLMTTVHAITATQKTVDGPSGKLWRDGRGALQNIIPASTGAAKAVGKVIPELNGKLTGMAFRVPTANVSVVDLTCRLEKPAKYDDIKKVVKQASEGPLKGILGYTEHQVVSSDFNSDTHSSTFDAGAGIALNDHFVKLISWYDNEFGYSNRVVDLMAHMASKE

Chain of UniProt P25858 (P25858 whole entry): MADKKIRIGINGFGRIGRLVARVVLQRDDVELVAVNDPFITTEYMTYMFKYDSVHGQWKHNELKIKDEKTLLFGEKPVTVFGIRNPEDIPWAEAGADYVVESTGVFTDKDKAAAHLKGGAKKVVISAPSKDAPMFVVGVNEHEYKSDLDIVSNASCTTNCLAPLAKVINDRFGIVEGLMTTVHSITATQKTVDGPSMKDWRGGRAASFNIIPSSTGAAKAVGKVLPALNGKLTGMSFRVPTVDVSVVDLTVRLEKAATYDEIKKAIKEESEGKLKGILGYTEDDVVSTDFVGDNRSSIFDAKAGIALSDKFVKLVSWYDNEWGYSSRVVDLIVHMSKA

Substance | IC50 of inhibition of enzymatic activity [1] | Kd [2] | shift of the melting temperature at 100 μM ligand [3] | IC50 of inhibition of GAPDH enzymatic activity [4] | IC50 of inhibition of GAPC1 enzymatic activity (oxidation of glyceraldehyde-3-phosphate, reduction of NAD+ to NADH) [1]
cyclo(Tyr-Asp), cyclo(L-tyrosyl-L-aspartic acid) (peptide) | 1500 µM | – | – | – | –
cyclo(His-Pro), cyclo(L-histidyl-L-proline) (peptide) | – | 40 µM | > 4 °C | 70 µM | 200 µM
